The target in experiment [1] is fluorescently labeled 5-FAM-SMG9 peptide (human) (UniProt Q9H0W8). Description: fluorescence polarisation; saturation: 2-fold serial dilutions of OGT (WT or mutant) plus equal volume of 0.4 uM 5-FAM-SMG9; TBS (150 mM NaCl, 20 mM Tris-HCl, pH 8.0); 20 min, room temperature. In general terms: Fluorescence polarisation rises when a labelled molecule tumbles more slowly, as on binding a larger partner.

Another experiment concerns the target T1, OGT (Homo sapiens, UniProt O15294).
T1 construct: two OGT constructs, full-length OGT (OGT) and the protein crystallization construct OGT4.5; His6 (N); made in house; host or cells: E. coli BL21(DE3)
T1 sequence (O15294 1-1046): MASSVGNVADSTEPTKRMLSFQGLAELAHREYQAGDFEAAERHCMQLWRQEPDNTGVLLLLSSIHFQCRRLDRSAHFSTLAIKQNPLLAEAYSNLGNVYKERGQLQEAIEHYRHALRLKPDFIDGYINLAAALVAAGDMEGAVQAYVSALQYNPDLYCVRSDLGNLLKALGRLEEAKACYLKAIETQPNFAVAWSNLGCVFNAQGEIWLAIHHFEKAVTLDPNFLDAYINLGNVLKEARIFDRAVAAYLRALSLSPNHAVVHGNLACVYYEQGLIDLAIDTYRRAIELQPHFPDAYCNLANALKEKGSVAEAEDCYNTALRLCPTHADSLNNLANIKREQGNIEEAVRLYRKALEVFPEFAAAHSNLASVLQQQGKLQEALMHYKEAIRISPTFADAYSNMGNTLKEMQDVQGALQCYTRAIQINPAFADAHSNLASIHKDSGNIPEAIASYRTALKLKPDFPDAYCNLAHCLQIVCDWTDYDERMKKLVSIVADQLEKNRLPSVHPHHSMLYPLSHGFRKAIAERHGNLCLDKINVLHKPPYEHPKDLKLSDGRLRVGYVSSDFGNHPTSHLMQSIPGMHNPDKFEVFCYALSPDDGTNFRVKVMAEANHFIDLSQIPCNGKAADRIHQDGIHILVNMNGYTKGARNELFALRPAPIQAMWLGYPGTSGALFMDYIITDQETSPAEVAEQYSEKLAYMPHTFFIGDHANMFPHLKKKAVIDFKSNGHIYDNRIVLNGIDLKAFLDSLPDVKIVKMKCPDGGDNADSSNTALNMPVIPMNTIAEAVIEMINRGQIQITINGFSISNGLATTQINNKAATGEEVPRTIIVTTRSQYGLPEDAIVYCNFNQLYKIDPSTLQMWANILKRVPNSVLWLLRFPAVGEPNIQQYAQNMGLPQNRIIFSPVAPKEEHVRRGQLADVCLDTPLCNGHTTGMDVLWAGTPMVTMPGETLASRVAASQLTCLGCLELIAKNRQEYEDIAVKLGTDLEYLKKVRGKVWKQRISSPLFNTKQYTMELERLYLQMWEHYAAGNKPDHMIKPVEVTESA
Description: Competitive fluorescence polarization (FP) binding assay with 5-FAM-SMG9 peptide. Particulars: FP competition with 5-FAM-SMG9 for OGT binding, TBS pH 8.0, n=3. The method, then: All FP measurements were carried out in black small volume 384-well plates (Greiner Bio-One). For saturation binding assays, 2-fold serial dilutions of recombinantly purified OGT were prepared in TBS (150 mM NaCl, 20 mM Tris-HCl, pH 8.0). 5-FAM-SMG9 fluorescent peptide at 0.4 μM in TBS was added in equal volume to the OGT dilution series. For competition binding assays, 2-fold serial dilutions of unlabeled peptide were prepared in TBS. An equal volume of 20 μM OGT with 0.4 μM 5-FAM-SMG9 in TBS was added to the dilution series. After 20 min incubation in the dark at room temperature, FP was read on a BMG PheraStar multimode plate reader equipt with 488, 520, 520 FP filter cube (BMG Labtech).

A further experiment concerns OGT F723E. Description: Saturation FP binding assay, OGT mutant F723E. Further details: species or system Human. Conditions: 5-FAM-SMG9 0.4 μM stock mixed 1:1, TBS pH 8.0, n=3. From the text:
(§1) To confirm the SMG9 peptide binding mode in our crystal structure, we mutated each of the two primary binding features: the hydrophobic pocket (F723, I734, and I787) and the bidentate donor N791, and measured their changes in binding affinity for SMG9 peptide. Each of the hydrophobic OGT residues were mutated to a glutamate or arginine, while the asparagine bidentate interaction was disrupted by mutation to alanine. Each mutated OGT construct was recombinantly expressed in E coli and purified at high concentration for FP saturation binding assays with fluorescent SMG9 peptide. Insertion of charged residues into the hydrophobic pocket (F723E, I734R, I787E, and I787R) as well as disruption of the bidentate backbone interaction (N791 A) each shifted EC50 values by >10-fold (Fig. 2d, Extended data Fig. 3a), showing that these mutations substantially disrupt SMG9 peptide binding.
(§2) All FP measurements were carried out in black small volume 384-well plates (Greiner Bio-One). For saturation binding assays, 2-fold serial dilutions of recombinantly purified OGT were prepared in TBS (150 mM NaCl, 20 mM Tris-HCl, pH 8.0). 5-FAM-SMG9 fluorescent peptide at 0.4 μM in TBS was added in equal volume to the OGT dilution series. […] After 20 min incubation in the dark at room temperature, FP was read on a BMG PheraStar multimode plate reader equipt with 488, 520, 520 FP filter cube (BMG Labtech).

Another experiment deals with OGT I734R. Description: Saturation FP binding assay, OGT mutant I734R. Also on record: species or system Human. Particulars: 5-FAM-SMG9 0.4 μM stock mixed 1:1, TBS pH 8.0, n=3.
Excerpt: as §1, §2

Another experiment has as its system OGT I787E. Description: Saturation FP binding assay, OGT mutant I787E. Particulars: 5-FAM-SMG9 0.4 μM stock mixed 1:1, TBS pH 8.0, n=3. Also on record: species or system Human.
Excerpt: as §1, §2

A further experiment relates to OGT I787R. Description: Saturation FP binding assay, OGT mutant I787R. Particulars: 5-FAM-SMG9 0.4 μM stock mixed 1:1, TBS pH 8.0, n=3. Further details: species or system Human.
Excerpt: as §1, §2

Another experiment concerns OGT N791A. Description: Saturation FP binding assay, OGT mutant N791A. Further details: species or system Human. Conditions: 5-FAM-SMG9 0.4 μM stock mixed 1:1, TBS pH 8.0, n=3.
Excerpt: as §1, §2

Experiment [2] has as its target T2, full-length O-GlcNAc transferase (OGT), recombinant (human, UniProt O15294-3 1-1036).
T2 chain: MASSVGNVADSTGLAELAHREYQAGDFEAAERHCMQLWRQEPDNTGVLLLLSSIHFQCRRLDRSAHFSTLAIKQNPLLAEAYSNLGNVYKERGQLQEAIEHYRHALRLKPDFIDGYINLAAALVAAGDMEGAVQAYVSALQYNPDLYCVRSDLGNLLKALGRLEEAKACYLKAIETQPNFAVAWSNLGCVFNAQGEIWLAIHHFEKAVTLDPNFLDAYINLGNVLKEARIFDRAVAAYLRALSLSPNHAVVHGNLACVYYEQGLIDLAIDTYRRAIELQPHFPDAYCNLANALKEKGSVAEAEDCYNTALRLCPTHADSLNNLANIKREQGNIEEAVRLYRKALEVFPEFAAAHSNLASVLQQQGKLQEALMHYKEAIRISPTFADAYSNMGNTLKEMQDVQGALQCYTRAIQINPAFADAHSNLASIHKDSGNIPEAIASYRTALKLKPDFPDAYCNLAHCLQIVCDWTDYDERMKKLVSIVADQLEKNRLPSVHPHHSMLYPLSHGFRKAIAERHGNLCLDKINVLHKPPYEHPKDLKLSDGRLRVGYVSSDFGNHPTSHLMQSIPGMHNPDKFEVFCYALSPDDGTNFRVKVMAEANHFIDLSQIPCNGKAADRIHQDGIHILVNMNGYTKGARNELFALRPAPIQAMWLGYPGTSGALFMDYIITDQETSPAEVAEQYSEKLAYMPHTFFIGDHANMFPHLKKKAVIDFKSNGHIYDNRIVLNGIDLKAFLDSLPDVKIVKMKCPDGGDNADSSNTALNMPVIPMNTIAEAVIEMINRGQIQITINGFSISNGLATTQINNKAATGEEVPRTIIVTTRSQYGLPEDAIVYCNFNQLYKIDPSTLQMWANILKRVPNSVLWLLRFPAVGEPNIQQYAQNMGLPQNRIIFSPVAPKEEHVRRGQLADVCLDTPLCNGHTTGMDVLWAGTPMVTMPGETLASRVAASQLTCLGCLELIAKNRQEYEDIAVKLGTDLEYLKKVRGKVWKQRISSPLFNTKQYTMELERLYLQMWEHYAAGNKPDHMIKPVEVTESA
As to the kind of experiment: MST.

By Kd is commonly meant the equilibrium constant for the complex coming apart.

Non-standard residues stand in square brackets, D forms with d. No end group written: not given here. pY = N[C@@H](Cc1ccc(OP(=O)(O)O)cc1)C(=O)O Bounds are passed on as bounds.

Turning to OGT F723E, recombinant (enzyme), the fold shift in EC50 against wild-type OGT in experiment [1] was above 10 fold.
On the same count and under the same terms, the figure for “OGT I787R, recombinant (from UniProt O15294-3 1-1036) (enzyme)” is above 10 fold.
Still for that read-out and setting: the figure for OGT N791A, recombinant (enzyme) is above 10 fold.
Regarding “SMG9 pY147: phosphorylated SMG9 peptide (pY147) (QRPTQPV[pY]QIQNRGMG)”, the “peptide binding to OGT (FP competition)” value in the experiment with OGT is recorded as “significantly disrupted peptide binding”.
For the molecule “OGT I787E, recombinant (from UniProt O15294-3 1-1036) (enzyme)”, in experiment [1], the fold shift in EC50 against wild-type OGT is above 10 fold.
As for “SMG9 Y147F: SMG9 peptide with Y147F mutation (QRPTQPVFQIQNRGMG)”, in the experiment with OGT, the “fold shift in EC50 relative to WT SMG9 peptide” value was above 10 fold.
Turning to OGT I734R, recombinant (enzyme), in experiment [1], the fold shift in EC50 against wild-type OGT was above 10 fold.
Turning to “5-FAM-SMG9 peptide: fluorescently labeled 5-FAM SMG9 peptide, probe for MST and FP assays (QRPTQPVYQIQNRGMG; not fully specified (N-terminus); also: 5-FAM label, position not given here)”, the “fold shift in EC50 relative to wild-type OGT” value with OGT F723E, with OGT I734R, in the experiment with OGT I787E, in the experiment on OGT I787R and with OGT N791A was above 10 fold each time.

B1: fluorescently labeled 5-FAM-SMG9 peptide (peptide, UniProt Q9H0W8 140-155, looked up)
peptide: QRPTQPVYQIQNRGMG
modifications: not fully specified (N-terminus); also: 5-FAM label, position not given here
notes: SMG9, human, 16-mer peptide with the PxYx[I/L] motif, residues 140-155 as stated for the SMG9 peptide; The limits 140-155 are printed for the SMG9 peptide of the crystal; the labelled peptide bears the same name; also called fluorescent SMG9 peptide; source: synthetic peptide (solid phase peptide synthesis, Ontores)
Take B1: the equilibrium dissociation constant (Kd) in experiment [2] is 13.1 µM.

The values are drawn from publication PMC9915769, “A novel binding site on the cryptic intervening domain is a motif-dependent regulator of O-GlcNAc transferase” (Research Square, 2023).
